# Test results from the supplement of paper PMC7877785.
# ± gives the uncertainty stated by the source.
# Test: self-splicing fitness, log relative to wild type (ln ratio); higher = more splicing; Tetrahymena group I intron in knt gene, E. coli kanamycin selection, DiMSum; sequences stand for … in CUCUCU…GGAGGGAAAAGUUAUCAGGCAUGCACCUGGUAGCUAGUCUUUAAACCAAUAGAUUGCAUCGGUUUAAAAGGCAAGACCGUCAAAUUGCGGGAAAGGGGUCAACAGCCGUUCAGUACCAAGUCUCAGGGGAAACUUUGAGAUGGCCUUGCAAAGGGUAUGGUAAUAAGCUGACGGACAUGGUCCUAACCACGCAGCCAAGUCCUAAGUCAACAGAUCUUCUGUUGAUAUGGAUGCAGUUCACAGACUAAAUGUCGGUCGGGGAAGAUGUAUUCUUCUCAUAAGAUAUAGUCGGACCUCUCCUUAAUGGGAGCUAGCGGAUGAAGUGAUGCAACACUGGAGCCGCUGGGAACUAAUUUGUAUGCGAAAGUAUAUUGAUUAGUUUUGGAGUACUCGUGGUCG
# Procedure, shortened: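 Library with all eight P1ex-region intron nucleotides randomised, intron inside the knt kanamycin-resistance gene on pET-22b(+), in E. coli BL21(DE3). Cells grew overnight at 37°C or 30°C on LB agar with or without 25 μg/mL kanamycin (plus 100 μg/mL carbenicillin, 50 μM IPTG, 0.2% rhamnose), in six replicate transformations. Pooled colonies were amplicon-sequenced on Illumina HiSeq 2500. DiMSum fitness is the error-weighted combination of wild-type-normalised replicate fold changes, kanamycin versus none.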
Sequence,self-splicing fitness (ln) (30 °C),self-splicing fitness (ln) (37 °C)
GGCCAGCAAUAUUACGUUUU,-1.31 ± 0.065,-1.22 ± 0.079
GGCGAGCAAUAUUACGAAAC,-2.42 ± 0.15,-0.0615 ± 0.14
GGCGAGCAAUAUUACGAAUU,-1.66 ± 0.14,-0.459 ± 0.17
GGCGAGCAAUAUUACGACAC,-1.12 ± 0.19,-0.253 ± 0.26
GGCGAGCAAUAUUACGACCC,-3.18 ± 0.44,-1.25 ± 0.5
GGCGAGCAAUAUUACGACCU,-0.951 ± 0.19,-0.976 ± 0.39
GGCGAGCAAUAUUACGAGAC,-1.31 ± 0.49,–
GGCGAGCAAUAUUACGAGCA,-1.44 ± 0.25,-0.374 ± 0.28
GGCGAGCAAUAUUACGAGGU,-3.57 ± 0.36,-0.907 ± 0.22
GGCGAGCAAUAUUACGCAGU,-1.29 ± 0.43,-0.76 ± 0.39
GGCGAGCAAUAUUACGCGGG,–,-2.89 ± 0.38
GGCGAGCAAUAUUACGCUCA,-1.02 ± 0.11,0.00865 ± 0.12
GGCGAGCAAUAUUACGCUUA,-1.63 ± 0.15,-0.623 ± 0.15
GGCGAGCAAUAUUACGCUUG,–,-2.71 ± 0.48
GGCGAGCAAUAUUACGGCCA,-1.39 ± 0.21,-1.35 ± 0.27
GGCGAGCAAUAUUACGGCCG,-2.11 ± 0.16,-0.882 ± 0.2
GGCGAGCAAUAUUACGGCUU,-0.682 ± 0.2,-0.0819 ± 0.35
GGCGAGCAAUAUUACGGGGG,-3.33 ± 0.2,-2.64 ± 0.28
GGCGAGCAAUAUUACGUAUU,-2.29 ± 0.14,-0.757 ± 0.12
GGCGAGCAAUAUUACGUCGA,-2.43 ± 0.23,-0.47 ± 0.15
GGCGAGCAAUAUUACGUGGC,-3.3 ± 0.25,-1.73 ± 0.25
GGCGAGCAAUAUUACGUUCU,-1.02 ± 0.051,-0.335 ± 0.07
GGCGAGCAAUAUUACGUUGU,-3.25 ± 0.18,-2.48 ± 0.25

Sequence,self-splicing fitness (ln) (30 °C),self-splicing fitness (ln) (37 °C)
GGCUAGCAAUAUUACGAAGG,–,-0.668 ± 0.29
GGCUAGCAAUAUUACGACCA,-1.49 ± 0.3,-1.43 ± 0.31
GGCUAGCAAUAUUACGACCG,-0.745 ± 0.14,-0.188 ± 0.21
GGCUAGCAAUAUUACGACGG,-3.75 ± 0.37,-2.18 ± 0.46
GGCUAGCAAUAUUACGAGGA,-1.17 ± 0.17,-1.47 ± 0.14
GGCUAGCAAUAUUACGAGUC,–,-1.08 ± 0.26
GGCUAGCAAUAUUACGCCGC,-3.44 ± 0.41,–
GGCUAGCAAUAUUACGCCGU,-1.49 ± 0.11,-0.833 ± 0.17
GGCUAGCAAUAUUACGCCUC,-1.35 ± 0.18,-0.927 ± 0.23
GGCUAGCAAUAUUACGCGCU,-2.76 ± 0.25,-2.42 ± 0.3
GGCUAGCAAUAUUACGCUAU,-1.3 ± 0.11,0.0903 ± 0.12
GGCUAGCAAUAUUACGCUGG,-4.2 ± 0.42,–
GGCUAGCAAUAUUACGCUUA,-0.872 ± 0.1,-0.117 ± 0.11
GGCUAGCAAUAUUACGCUUU,-0.428 ± 0.083,0.202 ± 0.099
GGCUAGCAAUAUUACGGCGC,0.164 ± 0.14,0.272 ± 0.16
GGCUAGCAAUAUUACGGGAU,-1.89 ± 0.089,-1.03 ± 0.11
GGCUAGCAAUAUUACGGGCA,0.122 ± 0.082,0.0658 ± 0.092
GGCUAGCAAUAUUACGGGCC,–,-1.98 ± 0.42
GGCUAGCAAUAUUACGGGGA,-2.17 ± 0.17,-1.25 ± 0.17
GGCUAGCAAUAUUACGGGGC,-3.67 ± 0.47,-2.08 ± 0.28
GGCUAGCAAUAUUACGGUAC,-1.91 ± 0.17,-0.733 ± 0.14
GGCUAGCAAUAUUACGGUCA,-0.918 ± 0.1,-0.851 ± 0.085
